Laboratory results published in the supplement of paper PMC9233669.
This sample holds only a part of the variants without activity.

Experiments:
biotinyl-Met-oxazolone = experiment: self-aminoacylation, catalytic enhancement (BMO) (fold over background); higher = more active; k-Seq, kA / k0A0; sequences stand for … in GGGAAUGGAUCCACAUCUACGAAUUC…UUCACUGCAGACUUGACGAAGCUG
Outline: (§1)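 Mutagenized RNA pools with a 21-nt variable region (0.43 μM) reacted with each biotinyl-aminoacyl-oxazolone at 2–1250 μM. Reactions ran in 50 μL HEPES/NaCl/KCl/MgCl2/CaCl2 buffer with 5% acetonitrile, pH 6.9–7.0, for 90 minutes at room temperature. Streptavidin-captured RNA was quantified by triplicate qPCR and Illumina sequencing, and per-sequence fraction reacted was fit to a pseudo-first-order model with 1000 bootstraps. Catalytic enhancement is median kA divided by the uncatalyzed rate, the low-activity peak of a bimodal Gaussian fit.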

biotinyl-Ile-oxazolone = experiment: self-aminoacylation, catalytic enhancement (BIO) (fold over background); higher = more active; k-Seq, kA / k0A0; sequences stand for … in GGGAAUGGAUCCACAUCUACGAAUUC…UUCACUGCAGACUUGACGAAGCUG
Outline: as §1

biotinyl-Phe-oxazolone = experiment: self-aminoacylation, catalytic enhancement (BFO) (fold over background); higher = more active; k-Seq, kA / k0A0; sequences stand for … in GGGAAUGGAUCCACAUCUACGAAUUC…UUCACUGCAGACUUGACGAAGCUG
Outline: as §1

biotinyl-Leu-oxazolone = experiment: self-aminoacylation, catalytic enhancement (BLO) (fold over background); higher = more active; k-Seq, kA / k0A0; sequences stand for … in GGGAAUGGAUCCACAUCUACGAAUUC…UUCACUGCAGACUUGACGAAGCUG
Outline: as §1

biotinyl-Trp-oxazolone = experiment: self-aminoacylation, catalytic enhancement (BWO) (fold over background); higher = more active; k-Seq, kA / k0A0; sequences stand for … in GGGAAUGGAUCCACAUCUACGAAUUC…UUCACUGCAGACUUGACGAAGCUG
Outline: as §1

biotinyl-Val-oxazolone = experiment: self-aminoacylation, catalytic enhancement (BVO) (fold over background); higher = more active; k-Seq, kA / k0A0; sequences stand for … in GGGAAUGGAUCCACAUCUACGAAUUC…UUCACUGCAGACUUGACGAAGCUG
Outline: as §1

AUUUCCCUGGUCAUCGCGUGA [Fam2.1 aminoacylation ribozyme variant]
self-aminoacylation (biotinyl-Met-oxazolone): 18.9
self-aminoacylation (biotinyl-Ile-oxazolone): 9.18
self-aminoacylation (biotinyl-Phe-oxazolone): 157
self-aminoacylation (biotinyl-Leu-oxazolone): 20.9
self-aminoacylation (biotinyl-Trp-oxazolone): 22.5
self-aminoacylation (biotinyl-Val-oxazolone): 10.4

AUUGCCCUGGUAAUCGAGUGA [Fam2.1 aminoacylation ribozyme variant]
self-aminoacylation (biotinyl-Met-oxazolone): 8.63
self-aminoacylation (biotinyl-Ile-oxazolone): 3.71
self-aminoacylation (biotinyl-Phe-oxazolone): 56
self-aminoacylation (biotinyl-Leu-oxazolone): 7.99
self-aminoacylation (biotinyl-Trp-oxazolone): 9.18
self-aminoacylation (biotinyl-Val-oxazolone): 3.92

CCACACUUGAAGCAAUCGUUC [Fam1B.1 aminoacylation ribozyme variant]
self-aminoacylation (biotinyl-Met-oxazolone): 0.487
self-aminoacylation (biotinyl-Ile-oxazolone): 0.685
self-aminoacylation (biotinyl-Phe-oxazolone): 0.863
self-aminoacylation (biotinyl-Leu-oxazolone): 0.674
self-aminoacylation (biotinyl-Trp-oxazolone): 0.436
self-aminoacylation (biotinyl-Val-oxazolone): 0.825

CCACACUUCAACCAAUCGGGC [Fam1B.1 aminoacylation ribozyme variant]
self-aminoacylation (biotinyl-Met-oxazolone): 1.75
self-aminoacylation (biotinyl-Ile-oxazolone): 1.91
self-aminoacylation (biotinyl-Phe-oxazolone): 3.78
self-aminoacylation (biotinyl-Leu-oxazolone): 2.24
self-aminoacylation (biotinyl-Trp-oxazolone): 2.09
self-aminoacylation (biotinyl-Val-oxazolone): 2.93

CCACACUUCUUGCAAUCGGUC [Fam1B.1 aminoacylation ribozyme variant]
self-aminoacylation (biotinyl-Met-oxazolone): 0.76
self-aminoacylation (biotinyl-Ile-oxazolone): 0.783
self-aminoacylation (biotinyl-Phe-oxazolone): 0.7
self-aminoacylation (biotinyl-Leu-oxazolone): 0.72
self-aminoacylation (biotinyl-Trp-oxazolone): 0.654
self-aminoacylation (biotinyl-Val-oxazolone): 0.765

AAGUUGGCUAAUAGUCGCACG [Fam3.1 aminoacylation ribozyme variant]
self-aminoacylation (biotinyl-Met-oxazolone): 1.61
self-aminoacylation (biotinyl-Ile-oxazolone): 1.35
self-aminoacylation (biotinyl-Phe-oxazolone): 2.62
self-aminoacylation (biotinyl-Leu-oxazolone): 1.81
self-aminoacylation (biotinyl-Trp-oxazolone): 2.11
self-aminoacylation (biotinyl-Val-oxazolone): 1.63

AUUCACCCAGGUCAUCGGGUG [Fam2.2 aminoacylation ribozyme variant]
self-aminoacylation (biotinyl-Met-oxazolone): 4.83
self-aminoacylation (biotinyl-Ile-oxazolone): 3.26
self-aminoacylation (biotinyl-Phe-oxazolone): 34.2
self-aminoacylation (biotinyl-Leu-oxazolone): 5.86
self-aminoacylation (biotinyl-Trp-oxazolone): 4.53
self-aminoacylation (biotinyl-Val-oxazolone): 3.53

CUACCUCAAACAAACGGUCUG [Fam1A.1 aminoacylation ribozyme variant]
self-aminoacylation (biotinyl-Met-oxazolone): 0.85
self-aminoacylation (biotinyl-Ile-oxazolone): 0.919
self-aminoacylation (biotinyl-Phe-oxazolone): 1.33
self-aminoacylation (biotinyl-Leu-oxazolone): 1.08
self-aminoacylation (biotinyl-Trp-oxazolone): 0.615
self-aminoacylation (biotinyl-Val-oxazolone): 1.03

CCACACUUCAUGCGAUCGGUC [Fam1B.1 aminoacylation ribozyme variant]
self-aminoacylation (biotinyl-Met-oxazolone): 0.828
self-aminoacylation (biotinyl-Ile-oxazolone): 1.1
self-aminoacylation (biotinyl-Phe-oxazolone): 0.762
self-aminoacylation (biotinyl-Leu-oxazolone): 1.12
self-aminoacylation (biotinyl-Trp-oxazolone): 0.917
self-aminoacylation (biotinyl-Val-oxazolone): 1.17

AGCACCCUGGUCAUCGAGUGA [Fam2.1 aminoacylation ribozyme variant]
self-aminoacylation (biotinyl-Met-oxazolone): 8.03
self-aminoacylation (biotinyl-Ile-oxazolone): 4.58
self-aminoacylation (biotinyl-Phe-oxazolone): 6.9
self-aminoacylation (biotinyl-Leu-oxazolone): 6.84
self-aminoacylation (biotinyl-Trp-oxazolone): 9.35
self-aminoacylation (biotinyl-Val-oxazolone): 3.89

AUUAAGCUGGUCAUCGAGUGA [Fam2.1 aminoacylation ribozyme variant]
self-aminoacylation (biotinyl-Met-oxazolone): 3.07
self-aminoacylation (biotinyl-Ile-oxazolone): 2.77
self-aminoacylation (biotinyl-Phe-oxazolone): 4.33
self-aminoacylation (biotinyl-Leu-oxazolone): 3.05
self-aminoacylation (biotinyl-Trp-oxazolone): 3.85
self-aminoacylation (biotinyl-Val-oxazolone): 2.36

AUUCACCUAGGUCAUCAGAUG [Fam2.2 aminoacylation ribozyme variant]
self-aminoacylation (biotinyl-Met-oxazolone): 0.656
self-aminoacylation (biotinyl-Ile-oxazolone): 0.857
self-aminoacylation (biotinyl-Phe-oxazolone): 0.715
self-aminoacylation (biotinyl-Leu-oxazolone): 0.928
self-aminoacylation (biotinyl-Trp-oxazolone): 0.522
self-aminoacylation (biotinyl-Val-oxazolone): 0.872

AGGUUUGCUAAUAGUCGUAAG [Fam3.1 aminoacylation ribozyme variant]
self-aminoacylation (biotinyl-Met-oxazolone): 1.23
self-aminoacylation (biotinyl-Ile-oxazolone): 1.22
self-aminoacylation (biotinyl-Phe-oxazolone): 29.2
self-aminoacylation (biotinyl-Leu-oxazolone): 1.1
self-aminoacylation (biotinyl-Trp-oxazolone): 7.24
self-aminoacylation (biotinyl-Val-oxazolone): 1.08

AUUACCCUUGGCAUCGAGUGA [Fam2.1 aminoacylation ribozyme variant]
self-aminoacylation (biotinyl-Met-oxazolone): 6
self-aminoacylation (biotinyl-Ile-oxazolone): 2.75
self-aminoacylation (biotinyl-Phe-oxazolone): 31.7
self-aminoacylation (biotinyl-Leu-oxazolone): 6.72
self-aminoacylation (biotinyl-Trp-oxazolone): 8.88
self-aminoacylation (biotinyl-Val-oxazolone): 3.39

AUUACCCUGACCAUCGAGUGA [Fam2.1 aminoacylation ribozyme variant]
self-aminoacylation (biotinyl-Met-oxazolone): 4.2
self-aminoacylation (biotinyl-Ile-oxazolone): 3.01
self-aminoacylation (biotinyl-Phe-oxazolone): 8.94
self-aminoacylation (biotinyl-Leu-oxazolone): 4.95
self-aminoacylation (biotinyl-Trp-oxazolone): 5.06
self-aminoacylation (biotinyl-Val-oxazolone): 2.95

CUACUCCAAAGAAUCGGUCUG [Fam1A.1 aminoacylation ribozyme variant]
self-aminoacylation (biotinyl-Met-oxazolone): 0.731
self-aminoacylation (biotinyl-Ile-oxazolone): 0.927
self-aminoacylation (biotinyl-Phe-oxazolone): 0.807
self-aminoacylation (biotinyl-Leu-oxazolone): 1.03
self-aminoacylation (biotinyl-Trp-oxazolone): 0.807
self-aminoacylation (biotinyl-Val-oxazolone): 0.764

AUUACCCUGGCUAUCGAGUGA [Fam2.1 aminoacylation ribozyme variant]
self-aminoacylation (biotinyl-Met-oxazolone): 2.14
self-aminoacylation (biotinyl-Ile-oxazolone): 1.54
self-aminoacylation (biotinyl-Phe-oxazolone): 4.17
self-aminoacylation (biotinyl-Leu-oxazolone): 2.35
self-aminoacylation (biotinyl-Trp-oxazolone): 2.49
self-aminoacylation (biotinyl-Val-oxazolone): 1.82

CCACACUUCAAGACAUCGGUC [Fam1B.1 aminoacylation ribozyme variant]
self-aminoacylation (biotinyl-Met-oxazolone): 0.914
self-aminoacylation (biotinyl-Ile-oxazolone): 1
self-aminoacylation (biotinyl-Phe-oxazolone): 0.815
self-aminoacylation (biotinyl-Leu-oxazolone): 0.879
self-aminoacylation (biotinyl-Trp-oxazolone): 0.762
self-aminoacylation (biotinyl-Val-oxazolone): 0.896

AAGUUUCCUAAUAGUAGCAAG [Fam3.1 aminoacylation ribozyme variant]
self-aminoacylation (biotinyl-Met-oxazolone): 1.17
self-aminoacylation (biotinyl-Ile-oxazolone): 1.28
self-aminoacylation (biotinyl-Phe-oxazolone): 1.11
self-aminoacylation (biotinyl-Leu-oxazolone): 1.12
self-aminoacylation (biotinyl-Trp-oxazolone): 0.808
self-aminoacylation (biotinyl-Val-oxazolone): 1.05

AUUACUCUAGUCAUCGAGUGA [Fam2.1 aminoacylation ribozyme variant]
self-aminoacylation (biotinyl-Met-oxazolone): 5.28
self-aminoacylation (biotinyl-Ile-oxazolone): 2.95
self-aminoacylation (biotinyl-Phe-oxazolone): 19.1
self-aminoacylation (biotinyl-Leu-oxazolone): 5.41
self-aminoacylation (biotinyl-Trp-oxazolone): 6.32
self-aminoacylation (biotinyl-Val-oxazolone): 2.9

AUUACCAUAGUCAUCGAGUGA [Fam2.1 aminoacylation ribozyme variant]
self-aminoacylation (biotinyl-Met-oxazolone): 7.07
self-aminoacylation (biotinyl-Ile-oxazolone): 4.32
self-aminoacylation (biotinyl-Phe-oxazolone): 43.4
self-aminoacylation (biotinyl-Leu-oxazolone): 7.53
self-aminoacylation (biotinyl-Trp-oxazolone): 9.11
self-aminoacylation (biotinyl-Val-oxazolone): 3.89

AUUCACCUAGGUUAUCGCGUG [Fam2.2 aminoacylation ribozyme variant]
self-aminoacylation (biotinyl-Met-oxazolone): 3.16
self-aminoacylation (biotinyl-Ile-oxazolone): 2.09
self-aminoacylation (biotinyl-Phe-oxazolone): 20.7
self-aminoacylation (biotinyl-Leu-oxazolone): 3.29
self-aminoacylation (biotinyl-Trp-oxazolone): 3.11
self-aminoacylation (biotinyl-Val-oxazolone): 2.64

AUUACUCUGGUCCUCGAGUGA [Fam2.1 aminoacylation ribozyme variant]
self-aminoacylation (biotinyl-Met-oxazolone): 3.62
self-aminoacylation (biotinyl-Ile-oxazolone): 2.31
self-aminoacylation (biotinyl-Phe-oxazolone): 18.2
self-aminoacylation (biotinyl-Leu-oxazolone): 4.34
self-aminoacylation (biotinyl-Trp-oxazolone): 4.62
self-aminoacylation (biotinyl-Val-oxazolone): 2.01

CCUCACUUCAAGCAAUCGGUA [Fam1B.1 aminoacylation ribozyme variant]
self-aminoacylation (biotinyl-Met-oxazolone): 1.51
self-aminoacylation (biotinyl-Ile-oxazolone): 1.05
self-aminoacylation (biotinyl-Phe-oxazolone): 1.91
self-aminoacylation (biotinyl-Leu-oxazolone): 1.22
self-aminoacylation (biotinyl-Trp-oxazolone): 1.57
self-aminoacylation (biotinyl-Val-oxazolone): 1.11

CUCCUACAAACAAUCGGUCUG [Fam1A.1 aminoacylation ribozyme variant]
self-aminoacylation (biotinyl-Met-oxazolone): 0.838
self-aminoacylation (biotinyl-Ile-oxazolone): 0.836
self-aminoacylation (biotinyl-Phe-oxazolone): 0.939
self-aminoacylation (biotinyl-Leu-oxazolone): 0.873
self-aminoacylation (biotinyl-Trp-oxazolone): 0.924
self-aminoacylation (biotinyl-Val-oxazolone): 0.693

AUUAACCUGGUCAUCGAGUUA [Fam2.1 aminoacylation ribozyme variant]
self-aminoacylation (biotinyl-Met-oxazolone): 1.34
self-aminoacylation (biotinyl-Ile-oxazolone): 1
self-aminoacylation (biotinyl-Phe-oxazolone): 0.827
self-aminoacylation (biotinyl-Leu-oxazolone): 1.06
self-aminoacylation (biotinyl-Trp-oxazolone): 0.836
self-aminoacylation (biotinyl-Val-oxazolone): 1.02
